Reference: US8097440B1, “Engineered microorganisms capable of producing target compounds under anaerobic conditions” (Gevo, Inc., priority 2008, dated 2012)

How the values were obtained:
[1] = test system: Lactococcus lactis alcohol dehydrogenase Ll_AdhA, SEQ ID NO: 67; details: NADH as cofactor; cited from earlier work
[2] = substrate: NC(=O)C1=CN([C@@H]2O[C@H](COP(=O)(O)OP(=O)(O)OC[C@H]3O[C@@H](n4cnc5c(N)ncnc54)[C@H](O)[C@@H]3O)[C@@H](O)[C@H]2O)C=CC1; assay: KARI assay, purified Ec_IlvC^P2D1-A1-his6; format: biochemical, E. coli; details: other: expressed in yeast GEVO1186, purified; 30.0 °C
Method: (§1) KARI cuvette assay: KARI activity was assayed kinetically by monitoring the decrease in NAD(P)H concentration by measuring the absorbance at 340 nm. A reaction buffer was prepared containing 250 mM potassium phosphate pH 7, 1 mM DTT and 10 mM MgCl2. Cell pellets were resuspended (0.25 g wet weight/mL buffer) in 250 mM potassium phosphate (KPi) buffer containing 1 mM DTT and 10 mM MgCl2. The resuspended cells were lysed by sonication for 1 min with a 50% duty cycle and pelleted at 11000×g and 4° C. for 15 min. A reaction mixture consisting of 910 μl reaction buffer, 50 μl acetolactate, and 20 μl lysate was prepared in a cuvette. The reaction was initiated by addition of 20 μL of 10 mM NAD(P)H. A substrate free control was conducted using reaction buffer without the addition of acetolactate.
(§2) Purification of KARI: Cell pellets used for purification were resuspended in purification buffer A (20 mM Tris, 20 mM imidazol, 100 mM NaCl, 10 mM MgCl2, pH 7.4). KARI was purified by IMAC (Immobilized metal affinity chromatography) over a 1 ml Histrap High Performance (histrap HP) column pre-charged with Nickel (GE Healthcare) using an Akta FPLC system (GE Healthcare). The column was equilibrated with four column volumes (cv) of buffer A. After injecting the crude extract, the column was washed with buffer A for 2 cv, followed by a wash step with a mixture of 10% elution buffer B (20 mM Tris, 300 mM imidazol, 100 mM NaCl, 10 mM MgCl2, pH 7.4) for 5 cv. KARI variants were eluted at 40% buffer B and stored at 4° C.
Improved variants were expressed and purified from GEVO1186. 20 mL SC-URA medium overnight cultures were grown at 30° C. and 250 rpm in 250 mL flasks and were then used to inoculate 96 well deep well plates on the next morning. 50 μL of the overnight cultures were transferred into 600 μL SC-URA medium per well. The plates were then grown at 30° C. and 250 rpm in a humidified plate shaker for 8 h. In order to the harvest, the cultures were transferred into 50 mL Falcon tubes and then spun down at 4° C. and 5,000 rpm for 10 min. […]

[3] = substrate: NC(=O)C1=CN([C@@H]2O[C@H](COP(=O)(O)OP(=O)(O)OC[C@H]3O[C@@H](n4cnc5c(N)ncnc54)[C@H](OP(=O)(O)O)[C@@H]3O)[C@@H](O)[C@H]2O)C=CC1; assay: KARI cuvette assay, purified Ec_IlvC^B8-his6; format: biochemical, E. coli; details: other: purified; acetolactate as substrate
Method: as §1, §2
(§3) As a next step, the gene encoding variant Ec_llvC^Q110V-his6 (SEQ ID NO: 23) was used as template to generate individual combinations of the mutation Q110V with other mutations: R68L, A71T, A71S, R76G, R76S, R76T, S78D, and R76D. After screening the variants as described above, the most promising ones were expressed, purified, and characterized. Table 29 lists the KM values in μM on NADPH and NADH for Ec_llvC^his6, Ec_llvC^Q110V-his6, and variants of Ec_llvC^Q110V-his6. […] The A71S mutation was introduced into Ec_llvC^B8-his6 resulting in a variant Ec_llvC^B8A71S-his6, which yielded 44% catalytic efficiency on NADH compared to the catalytic efficiency of wild-type KARI on NADPH (FIG. 19 and Table 30).

[4] = substrate: NC(=O)C1=CN([C@@H]2O[C@H](COP(=O)(O)OP(=O)(O)OC[C@H]3O[C@@H](n4cnc5c(N)ncnc54)[C@H](O)[C@@H]3O)[C@@H](O)[C@H]2O)C=CC1; assay: KARI cuvette assay, purified Ec_IlvC^B8-his6; format: biochemical, E. coli
Method: as §1, §2, §3

[5] = other: purified, acetolactate as substrate

In the case of `CC=O` [Acetaldehyde], the Km [1] is listed as 500 µM and the kcat [1] is listed as 10 s⁻¹.

In the case of `CC(C)C=O` [isobutyraldehyde], the Km [1] is given as 9100 µM and the kcat [1] is given as 6.6 s⁻¹.

B1: E. coli KARI Ec_IlvC variant Ec_IlvC^P2D1-A1-his6 (Ec_IlvC^P2D1-his6 with K433E), SEQ ID NO: 42 (Escherichia coli K-12; A71S/D146G/G185R/K433E/Q110V/R76D/S78D) (protein)
chain: MANYFNTLNLRQQLAQLGKCRFMGRDEFADGASYLQGKKVVIVGCGAQGLNQGLNMRDSGLDISYALRKESIAEKDADWRKATENGFKVGTYEELIPQADLVINLTPDKVHSDVVRTVQPLMKDGAALGYSHGFNIVEVGEQIRKGITVVMVAPKCPGTEVREEYKRGFGVPTLIAVHPENDPKREGMAIAKAWAAATGGHRAGVLESSFVAEVKSDLMGEQTILCGMLQAGSLLCFDKLVEEGTDPAYAEKLIQFGWETITEALKQGGITLMMDRLSNPAKLRAYALSEQLKEIMAPLFQKHMDDIISGEFSSGMMADWANDDKKLLTWREETGKTAFETAPQYEGKIGEQEYFDKGVLMIAMVKAGVELAFETMVDSGIIEESAYYESLHELPLIANTIARKRLYEMNVVISDTAEYGNYLFSYACVPLLEPFMAELQPGDLGKAIPEGAVDNGQLRDVNEAIRSHAIEQVGKKLRGYMTDMKRIAVAGHHHHHH
With B1 the Km [2] was 26 µM, the kcat [2] was 4.3 s⁻¹ and the kcat/Km [2] was 167,687 M^−1 * S^−1.

B2: E. coli KARI Ec_IlvC variant Ec_IlvC^B8-his6 (Q110V, S78D), SEQ ID NO: 27 (Escherichia coli K-12; Q110V/S78D) (protein)
chain: MANYFNTLNLRQQLAQLGKCRFMGRDEFADGASYLQGKKVVIVGCGAQGLNQGLNMRDSGLDISYALRKEAIAEKRADWRKATENGFKVGTYEELIPQADLVINLTPDKVHSDVVRTVQPLMKDGAALGYSHGFNIVEVGEQIRKDITVVMVAPKCPGTEVREEYKRGFGVPTLIAVHPENDPKGEGMAIAKAWAAATGGHRAGVLESSFVAEVKSDLMGEQTILCGMLQAGSLLCFDKLVEEGTDPAYAEKLIQFGWETITEALKQGGITLMMDRLSNPAKLRAYALSEQLKEIMAPLFQKHMDDIISGEFSSGMMADWANDDKKLLTWREETGKTAFETAPQYEGKIGEQEYFDKGVLMIAMVKAGVELAFETMVDSGIIEESAYYESLHELPLIANTIARKRLYEMNVVISDTAEYGNYLFSYACVPLLKPFMAELQPGDLGKAIPEGAVDNGQLRDVNEAIRSHAIEQVGKKLRGYMTDMKRIAVAGLEHHHHHH
For B2, the Km [3] was 65 µM, the kcat [3] was 2.2 s⁻¹ and the kcat/Km [3] was 34,188 M^−1 * s^−1. For the same molecule, the Km [4, 5] was 65 µM, the kcat [4, 5] was 2.0 s⁻¹ and the kcat/Km [4, 5] was 31,775 M^−1 * s^−1. For the same molecule, the kcat/Km ([4]; with NADH) was 34200 M⁻¹ s⁻¹.
